Test results taken from paper PMC11251522, “Transcription factors ERα and Sox2 have differing multiphasic DNA- and RNA-binding mechanisms”.

Columns and labels:
Sox2 HMG [1] = biological target: T1, Sox2 HMG (human, UniProt P48431 40-123); assay: fluorescence anisotropy; second (low-affinity) transition; FP at 4°C; ERα: 20 mM Tris pH 7.5 (at 25°C), 100 mM NaCl, 5% glycerol, 0.01% IGEPAL; Sox2: 10 mM Tris pH 7.5 (at 25°C), 135 mM KCl, 15 mM NaCl, 0.1 mg/mL BSA, 4% Ficoll, 0.05% NP-40, 1 mM DTT; SPR: ERα buffer, 25°C; details: protein: recombinant; tags: N-terminal His8-MBP, 3C-cleaved; G-quadruplex
T1 sequence (P48431 40-123): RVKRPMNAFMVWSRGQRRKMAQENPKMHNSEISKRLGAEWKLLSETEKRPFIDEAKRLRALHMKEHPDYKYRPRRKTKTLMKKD

Sox2 HMG [2] = biological target: T1, Sox2 HMG; assay: fluorescence anisotropy; printed ≤1; first (high-affinity) transition, 44% of signal; FP at 4°C; ERα: 20 mM Tris pH 7.5 (at 25°C), 100 mM NaCl, 5% glycerol, 0.01% IGEPAL; Sox2: 10 mM Tris pH 7.5 (at 25°C), 135 mM KCl, 15 mM NaCl, 0.1 mg/mL BSA, 4% Ficoll, 0.05% NP-40, 1 mM DTT; SPR: ERα buffer, 25°C; details: protein: recombinant; tags: N-terminal His8-MBP, 3C-cleaved; G-quadruplex
Sox2 HMG [3] = biological target: T1, Sox2 HMG; assay: fluorescence anisotropy; apparent; Hill n 0.68; FP at 4°C; ERα: 20 mM Tris pH 7.5 (at 25°C), 100 mM NaCl, 5% glycerol, 0.01% IGEPAL; Sox2: 10 mM Tris pH 7.5 (at 25°C), 135 mM KCl, 15 mM NaCl, 0.1 mg/mL BSA, 4% Ficoll, 0.05% NP-40, 1 mM DTT; SPR: ERα buffer, 25°C; details: protein: recombinant; tags: N-terminal His8-MBP, 3C-cleaved

Q: With GGGAAGGGAAGGGAAGGGAA (structured_RNA) [G4 RNA (rG4), (G3A2)4] as the binder, how does the Kd (Sox2 HMG [1]) read?
A: The Kd was 110 ± 32 nM.

Q: What about the Kd (Sox2 HMG [2]) of the same binder?
A: The Kd was under 1 nM.

Q: How did the Kd (Sox2 HMG [3]) turn out when AAAAAAAAAAAAAAAAAAAA (ssRNA) [poly(A) RNA (rA20)] was run?
A: The Kd was 40 ± 13 nM.
